Experimental findings from US12564637B2, “Nucleic acid mazzocchio and methods of making and use thereof” (The University of Hong Kong, priority 2019, dated 2026) are described below.

The nature of data set [1]: Diameter of the nanostructure by transmission electron microscopy (TEM). The data set is classed as physicochemical. Particulars: images analyzed by ImageJ. How it is done: TEM was used to characterize the final DNA mazzocchio nanostructure. 5 μl of DNA mazzocchio samples were first adsorbed onto glow-discharged 400 mesh copper grids (Ted Pella, Inc.) for 1 minute. This was followed by staining with 2% uranyl acetate for 1 minute. The stained samples were washed twice by distilled water to remove excess uranyl acetate. Stained DNA mazzocchio samples on the grid were visualized using a Philips CM 100 Transmission Electron Microscope with 100 kV operating voltage. Electron photomicrographs of DNA mazzocchio were captured with magnification from 73,000×-105,000× on different positions of the grid. To experimentally determine the diameter of the DNA mazzocchio, images were analyzed by the ImageJ software.

The nature of data set [2]: Doxorubicin loading/encapsulation by quenching of doxorubicin fluorescence. The data set is classed as binding. The method, then: The DNA mazzocchio (from Example 1) and DNA tetrahedron nanostructures were made through an annealing process. The multiple single-stranded DNAs were mixed in equal ratio and placed in a thermal cycler to heat up (95° C. for 5 minutes) followed by slow cooling (overnight down to 20° C.).
10 μM of doxorubicin was incubated with various concentrations of the DNA mazzocchio and DNA tetrahedron nanostructures (as shown on the X-axis of FIG. 2) for 1 hour at room temperature. Then, 13 μl of mixture was placed in a 384-well microtiter plate and inserted in the plate reader. The fluorescence was measured using a plate reader (Varioskan Flash by Thermo Fisher Scientific) at the following parameters: Excitation 488 nm/Emission 595 nm; bandwidth 12 nm; measurement time: 500 ms. Error bars were obtained as standard error from triplicate experiments.
Since the intercalation of doxorubicin inhibited its fluorescence, the loading efficiency could be determined by the half maximal inhibitory concentration (IC50).

B1: mazzocchio: DNA nanostructure of 16 hexagonal subunits, each composed of 12 single-stranded DNA oligonucleotides (SEQ ID NOs: 1-12) (nucleic acid)
chain 1: GATAGGCCGAGATCTGAGGATGCTGGCTCACGCCATTGGCTCGCGACCCCGTCCGCTAGACGTTATGCACAAGGCGTTGTCATTAGATGCTTAGGTGCTCAGGCCGTAATGAGGCCGCTTGGCTGCGTTCCTCCGCCGCTTGGGAACAGCCCCGC
chain 2: TCCAGCTCTGCGGACGGGGTCGCGAGCCATTCGAGGGCT
chain 3: TCGCCTGTAATACGCCTTGTGCATAACGTCTTGCCAACCC
chain 4: TGCCCGTACCCTGGTGCACCTAAGCATCTAATGACTCTGCGGAAGA
chain 5: TACCCCACTTTAGCGATAGCGGCCTCATTACGGCCTGTGCTACCCGTACGGA
chain 6: ATCAGTACGATTGGCGTGAGCCAGCATCCTCTAGCGGCGGAGGAACGCAGCCTAGGCGGAACTCTTCGG
chain 7: TCGCTAAAGTGGGGTACCGAAGAGTTCCGCCT
chain 8: GATCTCGGCCTATCGCGGGGCTGTTCCC
chain 9: TCGTACTGATGAGCCCTCGA
chain 10: GAGCTGGAGGGTTGGC
chain 11: TTACAGGCGATCTTCCGCAG
chain 12: CCAGGGTACGGGCATCCGTACGGGTAGC
modifications: 16 hexagonal subunits assembled; Synthetic sequence - strand 1; Synthetic sequence - strand 2; Synthetic sequence - strand 3; Synthetic sequence - strand 4; Synthetic sequence - strand 5; Synthetic sequence - strand 6; Synthetic sequence - strand 7; Synthetic sequence - strand 8; Synthetic sequence - strand 9; Synthetic sequence - strand 10; Synthetic sequence - strand 11; Synthetic sequence - strand 12
With B1, the “average diameter of the nanostructures” value in data set [1] came to 49.30±10.37 nm. In addition, the IC50 in data set [2] (10 μM doxorubicin, 1 hour at room temperature, Ex 488 nm/Em 595 nm, triplicate, read-out: half maximal inhibitory concentration (IC50) of doxorubicin fluorescence (loading efficiency)) was 480 nM. For the same molecule, the “effectiveness in carrying doxorubicin as compared to the tetrahedron” value in data set [2] (comparison of the IC50 values) is “three times more effective”.
